Test results reported in US20250339531A1, “DUX4 POLYPEPTIDES AND NUCLEIC ACIDS FOR TREATING INFLAMMATORY AND AUTOIMMUNE CONDITIONS” (Fred Hutchinson Cancer Center, priority 2021, published 2025).

B1: Q07065 (protein, UniProt Q07065 1-602, looked up)
chain: MPSAKQRGSKGGHGAASPSEKGAHPSGGADDVAKKPPPAPQQPPPPPAPHPQQHPQQHPQNQAHGKGGHRGGGGGGGKSSSSSSASAAAAAAAASSSASCSRRLGRALNFLFYLALVAAAAFSGWCVHHVLEEVQQVRRSHQDFSRQREELGQGLQGVEQKVQSLQATFGTFESILRSSQHKQDLTEKAVKQGESEVSRISEVLQKLQNEILKDLSDGIHVVKDARERDFTSLENTVEERLTELTKSINDNIAIFTEVQKRSQKEINDMKAKVASLEESEGNKQDLKALKEAVKEIQTSAKSREWDMEALRSTLQTMESDIYTEVRELVSLKQEQQAFKEAADTERLALQALTEKLLRSEESVSRLPEEIRRLEEELRQLKSDSHGPKEDGGFRHSEAFEALQQKSQGLDSRLQHVEDGVLSMQVASARQTESLESLLSKSQEHEQRLAALQGRLEGLGSSEADQDGLASTVRSLGETQLVLYGDVEELKRSVGELPSTVESLQKVQEQVHTLLSQDQAQAARLPPQDFLDRLSSLDNLKASVSQVEADLKMLRTAVDSLVAYSVKIETNENNLESAKGLLDDLRNDLDRLFVKVEKIHEKV
modifications: full-length
B2: P51784 (protein, UniProt P51784 1-963, looked up)
chain: MAVAPRLFGGLCFRFRDQNPEVAVEGRLPISHSCVGCRRERTAMATVAANPAAAAAAVAAAAAVTEDREPQHEELPGLDSQWRQIENGESGRERPLRAGESWFLVEKHWYKQWEAYVQGGDQDSSTFPGCINNATLFQDEINWRLKEGLVEGEDYVLLPAAAWHYLVSWYGLEHGQPPIERKVIELPNIQKVEVYPVELLLVRHNDLGKSHTVQFSHTDSIGLVLRTARERFLVEPQEDTRLWAKNSEGSLDRLYDTHITVLDAALETGQLIIMETRKKDGTWPSAQLHVMNNNMSEEDEDFKGQPGICGLTNLGNTCFMNSALQCLSNVPQLTEYFLNNCYLEELNFRNPLGMKGEIAEAYADLVKQAWSGHHRSIVPHVFKNKVGHFASQFLGYQQHDSQELLSFLLDGLHEDLNRVKKKEYVELCDAAGRPDQEVAQEAWQNHKRRNDSVIVDTFHGLFKSTLVCPDCGNVSVTFDPFCYLSVPLPISHKRVLEVFFIPMDPRRKPEQHRLVVPKKGKISDLCVALSKHTGISPERMMVADVFSHRFYKLYQLEEPLSSILDRDDIFVYEVSGRIEAIEGSREDIVVPVYLRERTPARDYNNSYYGLMLFGHPLLVSVPRDRFTWEGLYNVLMYRLSRYVTKPNSDDEDDGDEKEDDEEDKDDVPGPSTGGSLRDPEPEQAGPSSGVTNRCPFLLDNCLGTSQWPPRRRRKQLFTLQTVNSNGTSDRTTSPEEVHAQPYIAIDWEPEMKKRYYDEVEAEGYVKHDCVGYVMKKAPVRLQECIELFTTVETLEKENPWYCPSCKQHQLATKKLDLWMLPEILIIHLKRFSYTKFSREKLDTLVEFPIRDLDFSEFVIQPQNESNPELYKYDLIAVSNHYGGMRDGHYTTFACNKDSGQWHYFDDNSVSPVNENQIESKAAYVLFYQRQDVARRLLSPAGSSGAPASPACSSPPSSEFMDVN
modifications: full-length
B3: Q16643 (protein, UniProt Q16643 1-649, looked up)
chain: MAGVSFSGHRLELLAAYEEVIREESAADWALYTYEDGSDDLKLAASGEGGLQELSGHFENQKVMYGFCSVKDSQAALPKYVLINWVGEDVPDARKCACASHVAKVAEFFQGVDVIVNASSVEDIDAGAIGQRLSNGLARLSSPVLHRLRLREDENAEPVGTTYQKTDAAVEMKRINREQFWEQAKKEEELRKEEERKKALDERLRFEQERMEQERQEQEERERRYREREQQIEEHRRKQQTLEAEEAKRRLKEQSIFGDHRDEEEETHMKKSESEVEEAAAIIAQRPDNPREFFKQQERVASASAGSCDVPSPFNHRPGSHLDSHRRMAPTPIPTRSPSDSSTASTPVAEQIERALDEVTSSQPPPLPPPPPPAQETQEPSPILDSEETRAAAPQAWAGPMEEPPQAQAPPRGPGSPAEDLMFMESAEQAVLAAPVEPATADATEIHDAADTIETDTATADTTVANNVPPAATSLIDLWPGNGEGASTLQGEPRAPTPPSGTEVTLAEVPLLDEVAPEPLLPAGEGCATLLNFDELPEPPATFCDPEEVEGESLAAPQTPTLPSALEELEQEQEPEPHLLTNGETTQKEGTQASEGYFSQSQEEEFAQSEELCAKAPPPVFYNKPPEIDITCWDADPVPEEEEGFEGGD
modifications: full-length
B4: P12814 (protein, UniProt P12814 1-892, looked up)
chain: MDHYDSQQTNDYMQPEEDWDRDLLLDPAWEKQQRKTFTAWCNSHLRKAGTQIENIEEDFRDGLKLMLLLEVISGERLAKPERGKMRVHKISNVNKALDFIASKGVKLVSIGAEEIVDGNVKMTLGMIWTIILRFAIQDISVEETSAKEGLLLWCQRKTAPYKNVNIQNFHISWKDGLGFCALIHRHRPELIDYGKLRKDDPLTNLNTAFDVAEKYLDIPKMLDAEDIVGTARPDEKAIMTYVSSFYHAFSGAQKAETAANRICKVLAVNQENEQLMEDYEKLASDLLEWIRRTIPWLENRVPENTMHAMQQKLEDFRDYRRLHKPPKVQEKCQLEINFNTLQTKLRLSNRPAFMPSEGRMVSDINNAWGCLEQVEKGYEEWLLNEIRRLERLDHLAEKFRQKASIHEAWTDGKEAMLRQKDYETATLSEIKALLKKHEAFESDLAAHQDRVEQIAAIAQELNELDYYDSPSVNARCQKICDQWDNLGALTQKRREALERTEKLLETIDQLYLEYAKRAAPFNNWMEGAMEDLQDTFIVHTIEEIQGLTTAHEQFKATLPDADKERLAILGIHNEVSKIVQTYHVNMAGTNPYTTITPQEINGKWDHVRQLVPRRDQALTEEHARQQHNERLRKQFGAQANVIGPWIQTKMEEIGRISIEMHGTLEDQLSHLRQYEKSIVNYKPKIDQLEGDHQLIQEALIFDNKHTNYTMEHIRVGWEQLLTTIARTINEVENQILTRDAKGISQEQMNEFRASFNHFDRDHSGTLGPEEFKACLISLGYDIGNDPQGEAEFARIMSIVDPNRLGVVTFQAFIDFMSRETADTDTADQVMASFKILAGDKNYITMDELRRELPPDQAEYCIARMAPYTGPDSVPGALDYMSFSTALYGESDL
modifications: full-length
B5: P02545 (protein, UniProt P02545 1-664, looked up)
chain: METPSQRRATRSGAQASSTPLSPTRITRLQEKEDLQELNDRLAVYIDRVRSLETENAGLRLRITESEEVVSREVSGIKAAYEAELGDARKTLDSVAKERARLQLELSKVREEFKELKARNTKKEGDLIAAQARLKDLEALLNSKEAALSTALSEKRTLEGELHDLRGQVAKLEAALGEAKKQLQDEMLRRVDAENRLQTMKEELDFQKNIYSEELRETKRRHETRLVEIDNGKQREFESRLADALQELRAQHEDQVEQYKKELEKTYSAKLDNARQSAERNSNLVGAAHEELQQSRIRIDSLSAQLSQLQKQLAAKEAKLRDLEDSLARERDTSRRLLAEKEREMAEMRARMQQQLDEYQELLDIKLALDMEIHAYRKLLEGEEERLRLSPSPTSQRSRGRASSHSSQTQGGGSVTKKRKLESTESRSSFSQHARTSGRVAVEEVDEEGKFVRLRNKSNEDQSMGNWQIKRQNGDDPLLTYRFPPKFTLKAGQVVTIWAAGAGATHSPPTDLVWKAQNTWGCGNSLRTALINSTGEEVAMRKLVRSVTVVEDDEDEDGDDLLHHHHGSHCSSSGDPAEYNLRSRTVLCGTCGQPADKASASGSGAQVGGPISSGSSASSVTVTRSYRSVGGSGGGSFGDNLVTRSYLLGNSSPRTQSPQNCSIM
modifications: full-length
B6: O75083 (protein, UniProt O75083 1-606, looked up)
chain: MPYEIKKVFASLPQVERGVSKIIGGDPKGNNFLYTNGKCVILRNIDNPALADIYTEHAHQVVVAKYAPSGFYIASGDVSGKLRIWDTTQKEHLLKYEYQPFAGKIKDIAWTEDSKRIAVVGEGREKFGAVFLWDSGSSVGEITGHNKVINSVDIKQSRPYRLATGSDDNCAAFFEGPPFKFKFTIGDHSRFVNCVRFSPDGNRFATASADGQIYIYDGKTGEKVCALGGSKAHDGGIYAISWSPDSTHLLSASGDKTSKIWDVSVNSVVSTFPMGSTVLDQQLGCLWQKDHLLSVSLSGYINYLDRNNPSKPLHVIKGHSKSIQCLTVHKNGGKSYIYSGSHDGHINYWDSETGENDSFAGKGHTNQVSRMTVDESGQLISCSMDDTVRYTSLMLRDYSGQGVVKLDVQPKCVAVGPGGYAVVVCIGQIVLLKDQRKCFSIDNPGYEPEVVAVHPGGDTVAIGGVDGNVRLYSILGTTLKDEGKLLEAKGPVTDVAYSHDGAFLAVCDASKVVTVFSVADGYSENNVFYGHHAKIVCLAWSPDNEHFASGGMDMMVYVWTLSDPETRVKIQDAHRLHHVSSLAWLDEHTLVTTSHDASVKEWTITY
modifications: full-length
B7: Q6NZI2 (protein, UniProt Q6NZI2 1-390, looked up)
chain: MEDPTLYIVERPLPGYPDAEAPEPSSAGAQAAEEPSGAGSEELIKSDQVNGVLVLSLLDKIIGAVDQIQLTQAQLEERQAEMEGAVQSIQGELSKLGKAHATTSNTVSKLLEKVRKVSVNVKTVRGSLERQAGQIKKLEVNEAELLRRRNFKVMIYQDEVKLPAKLSISKSLKESEALPEKEGEELGEGERPEEDAAALELSSDEAVEVEEVIEESRAERIKRSGLRRVDDFKKAFSKEKMEKTKVRTRENLEKTRLKTKENLEKTRHTLEKRMNKLGTRLVPAERREKLKTSRDKLRKSFTPDHVVYARSKTAVYKVPPFTFHVKKIREGQVEVLKATEMVEVGADDDEGGAERGEAGDLRRGSSPDVHALLEITEESDAVLVDKSDSD
modifications: full-length

system: proteins that co-immunoprecipitated with DUX4-CTD constructs expressed in MB135 myoblasts; test: LC-MS of proteins co-immunoprecipitated with DUX4-CTD (Table 1) and western validation; format: binding, human; design: key to 4. mL1dL2 + Dox + IFNG / 4. + IFNG mix / 4. longCTD + Dox + IFNG / 3. + IFNg + Dox longCTD / 3. + Dox longCTD / 3. + IFNG longCTD: peptide-spectrum matches (PSMs) per protein; conditions: LC-MS counts of the listed protein co-immunoprecipitated with DUX4-CTD bait longCTD; experiment 4, Dox + IFNG
Method in brief: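 FLAG-tagged DUX4-CTD expressed in doxycycline-induced MB135 myoblasts, some also IFNG-treated; nuclear lysates in pH 7.4 NP-40 IP buffer were pre-cleared, then anti-FLAG immunoprecipitated 3 h at 4 °C. For LC-MS, FLAG-peptide elution, in-gel trypsin digest, Orbitrap analysis; proteins with ≥2 PSMs in both experiments categorised and ranked by total PSMs.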

Point of comparison: B4, “4. longCTD + Dox + IFNG” value 34. Against it:
- B1 — lower, 13
- B2 — lower, 2
- B3 — lower, 33
- B5 — lower, 6
- B6 — lower, 11
- B7 — lower, 16

same assay, conditions: bait longCTD; experiment 3, Dox only

Point of comparison: B3, “3. + Dox longCTD” value 3. Against it:
- B1 — higher, 30
- B4 — higher, 4
- B6 — lower, 1

same assay, conditions: bait longCTD; experiment 3, IFNG only, no doxycycline (bait at background level)

With B1 the “3. + IFNG longCTD” value was 4.

same assay, conditions: bait longCTD; experiment 3, IFNg + Dox

Point of comparison: B7, “3. + IFNg + Dox longCTD” value 3. Against it:
- B1 — higher, 62
- B2 — lower, 1
- B3 — higher, 13
- B4 — higher, 13
- B5 — the same, 3
- B6 — lower, 2

same assay, conditions: sum over all samples

Point of comparison: B4, “SUM of PSMS” value 82. Against it:
- B1 — higher, 152
- B2 — lower, 4
- B3 — lower, 51
- B5 — lower, 21
- B6 — lower, 16
- B7 — lower, 42
